T1: human IL-1α, biotinylated (human, UniProt P01583 113-271, biotin (EZ-Link NHS-Peg4-Biotin, 10-fold molar excess; sites not stated))
T1 construct: interleukin-1 alpha (IL1A), human; crystallised); If it was the ProSpec protein, it may carry a His tag (surmised from the Talon beads); also called IL-1a; IL1F1; source: purified IL-1α protein, biotinylated with EZ-Link NHS-Peg4-Biotin
T1 sequence (looked up): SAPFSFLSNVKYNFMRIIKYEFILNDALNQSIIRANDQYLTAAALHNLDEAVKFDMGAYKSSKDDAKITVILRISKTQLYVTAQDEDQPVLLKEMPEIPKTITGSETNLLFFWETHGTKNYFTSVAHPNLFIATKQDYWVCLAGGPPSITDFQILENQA


Target: T1, human IL-1α, biotinylated
Test: radioligand binding; competition: 32P-labelled aptamer SL1067 (~30 pM) and unlabelled receptor (10^-6 to 10^-11 M) with biotinylated IL-1α (2 nM) in SB18T buffer (40 mM HEPES pH 7.5, 102 mM NaCl, 5 mM KCl, 5 mM MgCl2, 0.01% Tween-20), 37 °C, 60 min; complexes captured on MyOne streptavidin resin and Durapore filter plates; one-site competition model
Conditions: both partners purified

| Ki [nM] | Binder |
| --- | --- |
| 290 | recombinant IL-1RII, extracellular domain (receptor, UniProt P27930 14-343, looked up, interleukin-1 receptor type 2, extracellular domain; also called IL-1RI1 (as printed in the methods); source: bought: R&D Systems) FTLQPAAHTGAARSCRFRGRHYKREFRLEGEPVALRCPQVPYWLWASVSPRINLTWHKNDSARTVPGEEETRMWAQDGALWLLPALQEDSGTYVCTTRNASYCDKMSIELRVFENTDAFLPFISYPQILTLSTSGVLVCPDLSEFTRDKTDVKIQWYKDSLLLDKDNEKFLSVRGTTHLLVHDVALEDAGYYRCVLTFAHEGQQYNITRSIELRIKKKKEETIPVIISPLKTISASLGSRLTIPCKVFLGTGTPLTTMLWWTANDTHIESAYPGGRVTEGPRQEYSENNENYIEVPLIFDPVTREDLHMDFKCVVHNTLSFQTLRTTVKE |
| 21 | recombinant IL-1RI, extracellular domain (receptor, UniProt P14778 18-336, looked up, interleukin-1 receptor type 1, extracellular domain; also called IL-1R1; IL-1 receptor; source: bought: R&D Systems) LEADKCKEREEKIILVSSANEIDVRPCPLNPNEHKGTITWYKDDSKTPVSTEQASRIHQHKEKLWFVPAKVEDSGHYYCVVRNSSYCLRIKISAKFVENEPNLCYNAQAIFKQKLPVAGDGGLVCPYMEFFKNENNELPKLQWYKDCKPLLLDNIHFSGVKDRLIVMNVAEKHRGNYTCHASYTYLGKQYPITRVIEFITLEENKPTRPVIVSPANETMEVDLGSQIQLICNVTGQLSDIAYWKWNGSVIDEDDPVLGEDYYSVENPANKRRSTLITVLNISEIESRFYKHPFTCFAKNTHGIDAAYIQLIYPVTNFQK |

— publication PMC5634487, “Structural basis for IL-1α recognition by a modified DNA aptamer that specifically inhibits IL-1α signaling” (Nature Communications, 2017)
